# Data published in patent US20120009123A1, “Albumin binding peptide-mediated disease targeting” (ABRAXIS BIOSCIENCE, LLC, priority 2008, published 2012).
# T1: albumin binding to SPARC (Homo sapiens, UniProt P09486)
# T1 construct: Full length, wild-type SPARC (“WT”)
# T1 sequence (P09486 18-303): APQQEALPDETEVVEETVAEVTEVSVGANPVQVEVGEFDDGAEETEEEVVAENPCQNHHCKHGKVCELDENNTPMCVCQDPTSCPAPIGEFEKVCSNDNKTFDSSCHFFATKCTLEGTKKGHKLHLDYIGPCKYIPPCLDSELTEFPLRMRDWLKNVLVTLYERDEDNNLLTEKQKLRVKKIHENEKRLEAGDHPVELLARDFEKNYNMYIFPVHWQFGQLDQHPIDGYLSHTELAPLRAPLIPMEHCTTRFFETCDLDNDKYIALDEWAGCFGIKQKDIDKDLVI
# Experiments:
# [1] = system: squamous cervix (A431) line; experiment: cells; conditions: Homo sapiens, A-431, read-out: IC50, in vitro cytotoxicity
# [2] = target: human serum albumin (HSA) (Homo sapiens, UniProt P02768); experiment: peptide phage display library screening (panning); assay type: binding; conditions: for assessment of sequence after fourth round of panning: about 100 plaques sequenced, FIG. 11
# Experimental: A commercial peptide phage display library (12-mer peptides in M13) was screened for peptides which bind to human serum albumin (HSA) (see FIG. 10). Four rounds of panning were completed as follows:
# 1. The phage library was screened by coating a 100 ug/ml HSA solution onto the wells of 12-well plate and exposing the wells to 1-2×1011 pfu phage. Bound phage were eluted with a 0.2M Glycine, pH2.2 buffer to yield 15×10^5 pfu/ml (which became 5×1013 pfu/ml after amplification);
# 2. The second panning was eluted with a 0.2M Glycine, pH 2.2 buffer to yield 12×10^6 pfu/ml (8×1013 pfu/ml after amplification);
# 3. The third panning was eluted with 250 ug/ml HSA for 1 hr to yield 5×10^5 pfu/ml (2×1012 pfu/ml after amplification); and
# 4. a fourth panning was eluted with a 0.2M Glycine, pH2.2 buffer to yield 14×10^8 pfu/ml. After the fourth round of panning, about 100 plaques were selected, amplified and sequenced.
# [3] = target: binding of albumin to SPARC (Homo sapiens, UniProt P02768); experiment: competitive binding assays with SPARC C-terminal cysteine-poor domain peptides; conditions: general statement in the description
# Experimental: The 15 mer SPARC C-terminal, cysteine-poor domain-spanning peptides were used in competitive binding assays. Specifically, the SPARC peptides were immobilized onto PVDF-attached 96 well plate in an overnight incubation at 4° C. (5 μg/well). The next day the plate was washed with DPBS and blocked for an hour with 5% Non-fat dry milk in DPBS. Next, 100 μl of DPBS was added to each well except the wells in first row. A vial of Alexa 488-BSA (5 mg) was dissolved with 1.2 ml of 25% HSA. Then, 100 μl of BSA-HSA was mixed with 100 μl of SPARC peptides prepared as 4 mg/ml in DPBS (resulting in a final concentration of the Alexa 488-BSA and peptides in first row of about 200 ug/well each). Serial dilution was made down to each column. The plate was incubated for an hour in a dark place, was washed, and the fluorescence was read. […] To further localize the SPARC albumin binding site SPARC sub-fragments were made (FIG. 8). In particular, peptides #103 ([…]) (SEQ ID NO: 66) and #104 ([…]) are subfragments of the sole active peptide, peptide #47.
# [4] = system: human serum albumin spiked with Alexa fluor 488 conjugated bovine serum albumin; experiment: SPARC-albumin interaction: SPARC immobilized on PVDF, fluorescent albumin binding; conditions: for albumin binding: polypeptide immobilized 5 μg/well on PVDF, FIG. 2
# Experimental: Full length, wild-type SPARC (“WT”), a SPARC deletion mutant in which the glutamine at residue 3 is deleted (“Q3”) or SPARC treated with Cathepsin K were immobilized on PVDF membrane and exposed to decreasing concentrations of human serum albumin spiked with Alexa fluor 488 conjugated bovine serum albumin.
# In the initial experiment, full length, wild-type SPARC and “Q3” mutant SPARC polypeptides were immobilized onto PVDF-attached 96 well plate by overnight at 4° C. incubation (5 μg/well). The next day the plate was washed with DPBS and blocked for an hour with 5% non-fat dry milk in DPBS. 100 μl of DPBS was added to each well. A vial of Alexa 488-BSA (5 mg) was dissolved with 1.2 ml of 25% Human Serum Albumin (“HSA”) and 100 μl of BSA-HSA mix was added to wells of first row of plate (resulting in a final concentration of Alexa 488-BSA in first row becomes about 200 μg/well). Serial dilutions were made down each column and the plate was incubated for an hour in a dark place. After 1 hr incubation, the membrane was washed with PBS and the amount of albumin remained quantified by fluorescent plate reader.
# Thirty μg of recombinant human (“rh”) SPARC was incubated with 0.4 μg of Cathepsin K for 10, 30, 60 and 120 minutes. […] Accordingly, overlapping 15 mer peptides were prepared which spanned the SPARC C-terminal, cysteine-poor domain (FIG. 6).
# human serum albumin = target: T2, human serum albumin (human, UniProt P02768 25-609); experiment: M13 12-mer phage display, four rounds of panning on coated HSA, sequencing of about 100 plaques
# T2 construct: also called HSA; human albumin
# albumin binding to SPARC = target: T1, albumin binding to SPARC; experiment: follow-up competitive studies of albumin binding to SPARC
molecule,measurement,setting,value
CC(=O)O[C@H]1C(=O)[C@@]2(C)[C@H]([C@H](OC(=O)c3ccccc3)[C@]3(O)C[C@H](OC(=O)[C@H](O)[C@@H](NC(=O)c4ccccc4)c4ccccc4)C(C)=C1C3(C)C)[C@]1(OC(C)=O)CO[C@@H]1C[C@@H]2O [TAX],IC50,[1],0.012 µg/mL
"KNHGATRTTRAS [SEQ ID NO: 2, called Peptide 47 in b190]",assessment of sequence after fourth round of panning,[2],probably be a true ligand
same,binding to human albumin,[2]; general statement in the description,binds human albumin with great avidity
"MYIFPVHWQFGQLDQ [peptide #47, 15 mer, amino acids 209-223 of the human SPARC protein]",binding to human albumin,[3],binds human albumin with great avidity
WPHHHHTRLSTV,assessment of sequence after fourth round of panning,[2],nonspecific binding
Q3: SPARC deletion mutant in which the glutamine at residue 3 is deleted (protein) APQEALPDETEVVEETVAEVTEVSVGANPVQVEVGEFDDGAEETEEEVVAENPCQNHHCKHGKVCELDENNTPMCVCQDPTSCPAPIGEFEKVCSNDNKTFDSSCHFFATKCTLEGTKKGHKLHLDYIGPCKYIPPCLDSELTEFPLRMRDWLKNVLVTLYERDEDNNLLTEKQKLRVKKIHENEKRLEAGDHPVELLARDFEKNYNMYIFPVHWQFGQLDQHPIDGYLSHTELAPLRAPLIPMEHCTTRFFETCDLDNDKYIALDEWAGCFGIKQKDIDKDLVI,albumin binding,[4],bind albumin
KNHGATRTTRAS [KNHGATRTTRAS (Peptide 47; SEQ ID NO: 2)],binding result,human serum albumin,binds
"SPARC: Secreted Protein, Acidic, Rich in Cysteines; full length, wild-type, 303 amino acid glycoprotein (protein) APQQEALPDETEVVEETVAEVTEVSVGANPVQVEVGEFDDGAEETEEEVVAENPCQNHHCKHGKVCELDENNTPMCVCQDPTSCPAPIGEFEKVCSNDNKTFDSSCHFFATKCTLEGTKKGHKLHLDYIGPCKYIPPCLDSELTEFPLRMRDWLKNVLVTLYERDEDNNLLTEKQKLRVKKIHENEKRLEAGDHPVELLARDFEKNYNMYIFPVHWQFGQLDQHPIDGYLSHTELAPLRAPLIPMEHCTTRFFETCDLDNDKYIALDEWAGCFGIKQKDIDKDLVI",albumin binding after cathepsin K digest,"[4]; cathepsin K digest 60 min, FIG. 5",obliterated
same,albumin binding,[4],bind albumin
same,IC50 of albumin binding to SPARC,albumin binding to SPARC,5%
